Results on 1 substance are retold here after publication PMC2194227.

Assay [1] addresses WT mCD1d cytoplasmic tail peptide (…) (mouse). Description: SPR. A general note: In SPR one partner is held on a chip, and binding of the other changes the refractive index at the surface.
The target of assay [2] is mutant mCD1d cytoplasmic tail peptide (…), tyrosine substituted for alanine (mouse). Description: SPR.

What is called Kd is the free concentration of one partner at which half of the binding sites on the other are occupied at equilibrium, for simple one-to-one binding. Read a high Kd as a looser complex. On to “adaptor protein complex 3 (AP-3) purified from pig brain cytosol”, for which the dissociation constant Kd came to 540 nM in assay [1] and 2630 nM in assay [2].
